B1: Transcription factor PIF5 (Arabidopsis thaliana (Mouse-ear cress)), Q84LH8 (parent)
chain: MEQVFADWNFEDNFHMSTNKRSIRPEDELVELLWRDGQVVLQSQARREPSVQVQTHKQETLRKPNNIFLDNQETVQKPNYAALDDQETVSWIQYPPDDVIDPFESEFSSHFFSSIDHLGGPEKPRTIEETVKHEAQAMAPPKFRSSVITVGPSHCGSNQSTNIHQATTLPVSMSDRSKNVEERLDTSSGGSSGCSYGRNNKETVSGTSVTIDRKRKHVMDADQESVSQSDIGLTSTDDQTMGNKSSQRSGSTRRSRAAEVHNLSERRRRDRINERMKALQELIPHCSRTDKASILDEAIDYLKSLQMQLQVMWMGSGMAAAAAAAASPMMFPGVQSSPYINQMAMQSQMQLSQFPVMNRSAPQNHPGLVCQNPVQLQLQAQNQILSEQLARYMGGIPQMPPAGNQMQTVQQQPADMLGFGSPAGPQSQLSAPATTDSLHMGKIG
B2: Transcription factor PIF3 (Arabidopsis thaliana (Mouse-ear cress)), O80536 (parent)
chain: MPLFELFRLTKAKLESAQDRNPSPPVDEVVELVWENGQISTQSQSSRSRNIPPPQANSSRAREIGNGSKTTMVDEIPMSVPSLMTGLSQDDDFVPWLNHHPSLDGYCSDFLRDVSSPVTVNEQESDMAVNQTAFPLFQRRKDGNESAPAASSSQYNGFQSHSLYGSDRARDLPSQQTNPDRFTQTQEPLITSNKPSLVNFSHFLRPATFAKTTNNNLHDTKEKSPQSPPNVFQTRVLGAKDSEDKVLNESVASATPKDNQKACLISEDSCRKDQESEKAVVCSSVGSGNSLDGPSESPSLSLKRKHSNIQDIDCHSEDVEEESGDGRKEAGPSRTGLGSKRSRSAEVHNLSERRRRDRINEKMRALQELIPNCNKVDKASMLDEAIEYLKSLQLQVQIMSMASGYYLPPAVMFPPGMGHYPAAAAAMAMGMGMPYAMGLPDLSRGGSSVNHGPQFQVSGMQQQPVAMGIPRVSGGGIFAGSSTIGNGSTRDLSGSKDQTTTNNNSNLKPIKRKQGSSDQFCGSS
B3: Transcription factor PIF6 (Arabidopsis thaliana (Mouse-ear cress)), Q8L5W7 (parent)
chain: MMFLPTDYCCRLSDQEYMELVFENGQILAKGQRSNVSLHNQRTKSIMDLYEAEYNEDFMKSIIHGGGGAITNLGDTQVVPQSHVAAAHETNMLESNKHVDDSETLKASSSKRMMVDYHNRKKIKFIPPDEQSVVADRSFKLGFDTSSVGFTEDSEGSMYLSSSLDDESDDARPQVPARTRKALVKRKRNAEAYNSPERNQRNDINKKMRTLQNLLPNSHKDDNESMLDEAINYMTNLQLQVQMMTMGNRFVTPSMMMPLGPNYSQMGLAMGVGMQMGEQQFLPAHVLGAGLPGINDSADMLRFLNHPGLMPMQNSAPFIPTENCSPQSVPPSCAAFPNQIPNPNSLSNLDGATLHKKSRKTNR
B4: Transcription factor PIF4 (Arabidopsis thaliana (Mouse-ear cress)), Q8W2F3-2 (parent)
chain: MEHQGWSFEENYSLSTNRRSIRPQDELVELLWRDGQVVLQSQTHREQTQTQKQDHHEEALRSSTFLEDQETVSWIQYPPDEDPFEPDDFSSHFFSTMDPLQRPTSETVKPKSSPEPPQVMVKPKACPDPPPQVMPPPKFRLTNSSSGIRETEMEQYSVTTVGPSHCGSNPSQNDLDVSMSHDRSKNIEEKLNPNASSSSGGSSGCSFGKDIKEMASGRCITTDRKRKRINHTDESVSLSDAIGNKSNQRSGSNRRSRAAEVHNLSERVLHRFVYIIYNI

Variants of: B1
Conditions: with phyb_arath PHYB

Variant	effect of a mutation on the interaction
MEQVFADWNFEDNFHMSTNKRSIRPEDELVELLWRDAQVVLQSQARREPSVQVQTHKQETLRKPNNIFLDNQETVQKPNYAALDDQETVSWIQYPPDDVIDPFESEFSSHFFSSIDHLGGPEKPRTIEETVKHEAQAMAPPKFRSSVITVGPSHCGSNQSTNIHQATTLPVSMSDRSKNVEERLDTSSGGSSGCSYGRNNKETVSGTSVTIDRKRKHVMDADQESVSQSDIGLTSTDDQTMGNKSSQRSGSTRRSRAAEVHNLSERRRRDRINERMKALQELIPHCSRTDKASILDEAIDYLKSLQMQLQVMWMGSGMAAAAAAAASPMMFPGVQSSPYINQMAMQSQMQLSQFPVMNRSAPQNHPGLVCQNPVQLQLQAQNQILSEQLARYMGGIPQMPPAGNQMQTVQQQPADMLGFGSPAGPQSQLSAPATTDSLHMGKIG [G37A]	decreasing interaction
MEQVFADWNFEDNFHMSTNKRSIRPEDELVEALWRDGQVVLQSQARREPSVQVQTHKQETLRKPNNIFLDNQETVQKPNYAALDDQETVSWIQYPPDDVIDPFESEFSSHFFSSIDHLGGPEKPRTIEETVKHEAQAMAPPKFRSSVITVGPSHCGSNQSTNIHQATTLPVSMSDRSKNVEERLDTSSGGSSGCSYGRNNKETVSGTSVTIDRKRKHVMDADQESVSQSDIGLTSTDDQTMGNKSSQRSGSTRRSRAAEVHNLSERRRRDRINERMKALQELIPHCSRTDKASILDEAIDYLKSLQMQLQVMWMGSGMAAAAAAAASPMMFPGVQSSPYINQMAMQSQMQLSQFPVMNRSAPQNHPGLVCQNPVQLQLQAQNQILSEQLARYMGGIPQMPPAGNQMQTVQQQPADMLGFGSPAGPQSQLSAPATTDSLHMGKIG [L32A]	decreasing interaction

More lines, now with the values ahead:

effect of a mutation on the interaction	Variant
decreasing interaction	MEQVFADWNFEDNFHMSTNKRSIRPEDELVALLWRDGQVVLQSQARREPSVQVQTHKQETLRKPNNIFLDNQETVQKPNYAALDDQETVSWIQYPPDDVIDPFESEFSSHFFSSIDHLGGPEKPRTIEETVKHEAQAMAPPKFRSSVITVGPSHCGSNQSTNIHQATTLPVSMSDRSKNVEERLDTSSGGSSGCSYGRNNKETVSGTSVTIDRKRKHVMDADQESVSQSDIGLTSTDDQTMGNKSSQRSGSTRRSRAAEVHNLSERRRRDRINERMKALQELIPHCSRTDKASILDEAIDYLKSLQMQLQVMWMGSGMAAAAAAAASPMMFPGVQSSPYINQMAMQSQMQLSQFPVMNRSAPQNHPGLVCQNPVQLQLQAQNQILSEQLARYMGGIPQMPPAGNQMQTVQQQPADMLGFGSPAGPQSQLSAPATTDSLHMGKIG [E31A]
decreasing interaction	MEQVFADWNFEDNFHMSTNKRSIRPEDELVELLWRDGAVVLQSQARREPSVQVQTHKQETLRKPNNIFLDNQETVQKPNYAALDDQETVSWIQYPPDDVIDPFESEFSSHFFSSIDHLGGPEKPRTIEETVKHEAQAMAPPKFRSSVITVGPSHCGSNQSTNIHQATTLPVSMSDRSKNVEERLDTSSGGSSGCSYGRNNKETVSGTSVTIDRKRKHVMDADQESVSQSDIGLTSTDDQTMGNKSSQRSGSTRRSRAAEVHNLSERRRRDRINERMKALQELIPHCSRTDKASILDEAIDYLKSLQMQLQVMWMGSGMAAAAAAAASPMMFPGVQSSPYINQMAMQSQMQLSQFPVMNRSAPQNHPGLVCQNPVQLQLQAQNQILSEQLARYMGGIPQMPPAGNQMQTVQQQPADMLGFGSPAGPQSQLSAPATTDSLHMGKIG [Q38A]

Variants of: B2
Conditions: with phyb_arath PHYB

effect of a mutation on the interaction	Variant
decreasing interaction	MPLFELFRLTKAKLESAQDRNPSPPVDEVVALVWENAQISTQSQSSRSRNIPPPQANSSRAREIGNGSKTTMVDEIPMSVPSLMTGLSQDDDFVPWLNHHPSLDGYCSDFLRDVSSPVTVNEQESDMAVNQTAFPLFQRRKDGNESAPAASSSQYNGFQSHSLYGSDRARDLPSQQTNPDRFTQTQEPLITSNKPSLVNFSHFLRPATFAKTTNNNLHDTKEKSPQSPPNVFQTRVLGAKDSEDKVLNESVASATPKDNQKACLISEDSCRKDQESEKAVVCSSVGSGNSLDGPSESPSLSLKRKHSNIQDIDCHSEDVEEESGDGRKEAGPSRTGLGSKRSRSAEVHNLSERRRRDRINEKMRALQELIPNCNKVDKASMLDEAIEYLKSLQLQVQIMSMASGYYLPPAVMFPPGMGHYPAAAAAMAMGMGMPYAMGLPDLSRGGSSVNHGPQFQVSGMQQQPVAMGIPRVSGGGIFAGSSTIGNGSTRDLSGSKDQTTTNNNSNLKPIKRKQGSSDQFCGSS [E31A;G37A]

Variants of: B3
Conditions: with phyb_arath PHYB

effect of a mutation on the interaction	Variant
decreasing interaction	MMFLPTDYCCRLSDQEYMALVFENAQILAKGQRSNVSLHNQRTKSIMDLYEAEYNEDFMKSIIHGGGGAITNLGDTQVVPQSHVAAAHETNMLESNKHVDDSETLKASSSKRMMVDYHNRKKIKFIPPDEQSVVADRSFKLGFDTSSVGFTEDSEGSMYLSSSLDDESDDARPQVPARTRKALVKRKRNAEAYNSPERNQRNDINKKMRTLQNLLPNSHKDDNESMLDEAINYMTNLQLQVQMMTMGNRFVTPSMMMPLGPNYSQMGLAMGVGMQMGEQQFLPAHVLGAGLPGINDSADMLRFLNHPGLMPMQNSAPFIPTENCSPQSVPPSCAAFPNQIPNPNSLSNLDGATLHKKSRKTNR [E19A;G25A]

Variants of: B4
Conditions: with phyb_arath PHYB

effect of a mutation on the interaction	Variant
decreasing interaction	MEHQGWSFEENYSLSTNRRSIRPQDELVELLWRDAQVVLQSQTHREQTQTQKQDHHEEALRSSTFLEDQETVSWIQYPPDEDPFEPDDFSSHFFSTMDPLQRPTSETVKPKSSPEPPQVMVKPKACPDPPPQVMPPPKFRLTNSSSGIRETEMEQYSVTTVGPSHCGSNPSQNDLDVSMSHDRSKNIEEKLNPNASSSSGGSSGCSFGKDIKEMASGRCITTDRKRKRINHTDESVSLSDAIGNKSNQRSGSNRRSRAAEVHNLSERVLHRFVYIIYNI [G35A]
decreasing interaction	MEHQGWSFEENYSLSTNRRSIRPQDELVALLWRDAQVVLQSQTHREQTQTQKQDHHEEALRSSTFLEDQETVSWIQYPPDEDPFEPDDFSSHFFSTMDPLQRPTSETVKPKSSPEPPQVMVKPKACPDPPPQVMPPPKFRLTNSSSGIRETEMEQYSVTTVGPSHCGSNPSQNDLDVSMSHDRSKNIEEKLNPNASSSSGGSSGCSFGKDIKEMASGRCITTDRKRKRINHTDESVSLSDAIGNKSNQRSGSNRRSRAAEVHNLSERVLHRFVYIIYNI [E29A;G35A]

Reference: IntAct's records for PubMed 15486100
